In the supplement of paper PMC5998384:

Assays:
[1] = tested on: HeLa Kyoto; test: thermal stability score vs G1/S (z-score of summed log2 fold changes over temperatures); higher = more thermally stable than in G1/S
[2] = tested on: HeLa Kyoto; test: solubility in G1/S (NP-40 vs SDS abundance) (log2 ratio); higher = more soluble; settings: cell cycle stage: G1/S
[3] = tested on: HeLa Kyoto; test: solubility change mitosis vs G1/S (difference of NP-40 vs SDS log2 ratios) (log2 ratio difference); higher = more soluble in mitosis
[4] = tested on: HeLa Kyoto; test: melting temperature (median over replicates), in situ; higher = more thermally stable
[5] = cell cycle stage: early G1 (4.5 h after nocodazole release)
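Wherever melting temperature (median over replicates), in situ is given: HeLa Kyoto cells synchronized by double thymidine or nocodazole block, proteins quantified by TMT10plex mass spectrometry, three independent biological replicates.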
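Wherever solubility change mitosis vs G1/S (difference of NP-40 vs SDS log2 ratios) is given: synchronized HeLa Kyoto cells (double thymidine block for G1/S, nocodazole release for mitosis), protein amounts in NP-40 versus SDS lysates quantified by mass spectrometry, three biological replicates.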
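Wherever solubility in G1/S (NP-40 vs SDS abundance) is given: HeLa Kyoto cells arrested at G1/S by double thymidine block, proteins quantified by TMT10plex mass spectrometry in mild NP-40 versus SDS extracts, three biological replicates.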
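Wherever thermal stability score vs G1/S (z-score of summed log2 fold changes over temperatures) is given: synchronized HeLa Kyoto cells, proteins quantified by TMT10plex mass spectrometry, three biological replicates, mitosis taken 0.5 h after nocodazole release, G1/S directly after double thymidine block.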

Sequence of HSPA2 (chain, as listed by the source): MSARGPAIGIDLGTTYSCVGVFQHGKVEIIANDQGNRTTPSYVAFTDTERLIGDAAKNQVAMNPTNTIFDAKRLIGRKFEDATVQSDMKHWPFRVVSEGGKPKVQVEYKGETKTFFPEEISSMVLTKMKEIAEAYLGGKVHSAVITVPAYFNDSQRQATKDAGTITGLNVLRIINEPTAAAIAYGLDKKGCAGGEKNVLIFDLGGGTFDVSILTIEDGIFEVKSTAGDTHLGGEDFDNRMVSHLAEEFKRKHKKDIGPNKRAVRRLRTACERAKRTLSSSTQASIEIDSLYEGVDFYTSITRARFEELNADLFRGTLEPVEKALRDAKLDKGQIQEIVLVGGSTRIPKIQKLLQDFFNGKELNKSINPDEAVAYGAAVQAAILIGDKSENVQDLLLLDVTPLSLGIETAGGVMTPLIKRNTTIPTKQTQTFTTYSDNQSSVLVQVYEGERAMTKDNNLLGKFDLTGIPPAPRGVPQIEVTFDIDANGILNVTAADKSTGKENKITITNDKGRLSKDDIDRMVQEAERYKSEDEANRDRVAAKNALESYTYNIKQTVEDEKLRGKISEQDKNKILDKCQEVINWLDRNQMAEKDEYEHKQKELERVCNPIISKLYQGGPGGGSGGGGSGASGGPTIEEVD

| Substance | thermal stability score [1, 5] | thermal stability score ([1]; cell cycle stage: mitosis) | solubility in G1/S (log2) [2] | solubility change mitosis (log2) [3] | melting temperature ([4]; cell cycle stage: G1/S) | melting temperature ([4]; cell cycle stage: mitosis) |
| --- | --- | --- | --- | --- | --- | --- |
| MLKQILSEMYIDPDLLAELSEEQKQILFFKMREEQIRRWKEREAAMERKESLPVKPRPKKENGKSVHWKLGADKEVWVWVMGEHHLDKPYDVLCNEIIAERARLKAEQEAEEPRKTHSEEFTNSLKTKSQYHDLQAPDNQQTKDIWKKVAEKEELEQGSRPAPTLEEEKIRSLSSSSRNIQQMLADSINRMKAYAFHQKKESMKKKQDEEINQIEEERTKQICKSWKEDSEWQASLRKSKAADEKRRSLAKQAREDYKRLSLGAQKGRGGERLQSPLRVPQKPERPPLPPKPQFLNSGAYPQKPLRNQGVVRTLSSSAQEDIIRWFKEEQLPLRAGYQKTSDTIAPWFHGILTLKKANELLLSTGMPGSFLIRVSERIKGYALSYLSEDGCKHFLIDASADAYSFLGVDQLQHATLADLVEYHKEEPITSLGKELLLYPCGQQDQLPDYLELFE [SH2D4A] | -0.202 | 0.42 | 0.308 | -0.0397 | 49 °C | 49.5 °C |
| MESCYNPGLDGIIEYDDFKLNSSIVEPKEPAPETADGPYLVIVEQPKQRGFRFRYGCEGPSHGGLPGASSEKGRKTYPTVKICNYEGPAKIEVDLVTHSDPPRAHAHSLVGKQCSELGICAVSVGPKDMTAQFNNLGVLHVTKKNMMGTMIQKLQRQRLRSRPQGLTEAEQRELEQEAKELKKVMDLSIVRLRFSAFLRASDGSFSLPLKPVISQPIHDSKSPGASNLKISRMDKTAGSVRGGDEVYLLCDKVQKDDIEVRFYEDDENGWQAFGDFSPTDVHKQYAIVFRTPPYHKMKIERPVTVFLQLKRKRGGDVSDSKQFTYYPLVEDKEEVQRKRRKALPTFSQPFGGGSHMGGGSGGAAGGYGGAGGGGSLGFFPSSLAYSPYQSGAGPMGCYPGGGGGAQMAATVPSRDSGEEAAEPSAPSRTPQCEPQAPEMLQRAREYNARLFGLAQRSARALLDYGVTADARALLAGQRHLLTAQDENGDTPLHLAIIHGQTSVIEQIVYVIHHAQDLGVVNLTNHLHQTPLHLAVITGQTSVVSFLLRVGADPALLDRHGDSAMHLALRAGAGAPELLRALLQSGAPAVPQLLHMPDFEGLYPVHLAVRARSPECLDLLVDSGAEVEATERQGGRTALHLATEMEELGLVTHLVTKLRANVNARTFAGNTPLHLAAGLGYPTLTRLLLKAGADIHAENEEPLCPLPSPPTSDSDSDSEGPEKDTRSSFRGHTPLDLTCSTKVKTLLLNAAQNTMEPPLTPPSPAGPGLSLGDTALQNLEQLLDGPEAQGSWAELAERLGLRSLVDTYRQTTSPSGSLLRSYELAGGDLAGLLEALSDMGLEEGVRLLRGPETRDKLPSTAEVKEDSAYGSQSVEQEAEKLGPPPEPPGGLCHGHPQPQVH [NFKB2] | 1.06 | 3.27 | 0.18 | -0.0485 | 47.5 °C | 48.3 °C |
| PIEZO1 | -1.8 | -2.23 | -0.227 | -0.0922 | 57.1 °C | 56.5 °C |
| TNKS1BP1 | -3.49 | -3.6 | -0.0801 | 0.0438 | 57.1 °C | 59.8 °C |
| MLSQVYRCGFQPFNQHLLPWVKCTTVFRSHCIQPSVIRHVRSWSNIPFITVPLSRTHGKSFAHRSELKHAKRIVVKLGSAVVTRGDECGLALGRLASIVEQVSVLQNQGREMMLVTSGAVAFGKQRLRHEILLSQSVRQALHSGQNQLKEMAIPVLEARACAAAGQSGLMALYEAMFTQYSICAAQILVTNLDFHDEQKRRNLNGTLHELLRMNIVPIVNTNDAVVPPAEPNSDLQGVNVISVKDNDSLAARLAVEMKTDLLIVLSDVEGLFDSPPGSDDAKLIDIFYPGDQQSVTFGTKSRVGMGGMEAKVKAALWALQGGTSVVIANGTHPKVSGHVITDIVEGKKVGTFFSEVKPAGPTVEQQGEMARSGGRMLATLEPEQRAEIIHHLADLLTDQRDEILLANKKDLEEAEGRLAAPLLKRLSLSTSKLNSLAIGLRQIAASSQDSVGRVLRRTRIAKNLELEQVTVPIGVLLVIFESRPDCLPQVAALAIASGNGLLLKGGKEAAHSNRILHLLTQEALSIHGVKEAVQLVNTREEVEDLCRLDKMIDLIIPRGSSQLVRDIQKAAKGIPVMGHSEGICHMYVDSEASVDKVTRLVRDSKCEYPAACNALETLLIHRDLLRTPLFDQIIDMLRVEQVKIHAGPKFASYLTFSPSEVKSLRTEYGDLELCIEVVDNVQDAIDHIHKYGSSHTDVIVTEDENTAEFFLQHVDSACVFWNASTRFSDGYRFGLGAEVGISTSRIHARGPVGLEGLLTTKWLLRGKDHVVSDFSEHGSLKYLHENLPIPQRNTN [ALDH18A1] | -0.326 | -2.31 | -0.0382 | -0.0142 | 52.5 °C | 52.1 °C |
| MSEQSICQARASVMVYDDTSKKWVPIKPGQQGFSRINIYHNTASNTFRVVGVKLQDQQVVINYSIVKGLKYNQATPTFHQWRDARQVYGLNFASKEEATTFSNAMLFALNIMNSQEGGPSSQRQVQNGPSPDEMDIQRRQVMEQHQQQRQESLERRTSATGPILPPGHPSSAASAPVSCSGPPPPPPPPVPPPPTGATPPPPPPLPAGGAQGSSHDESSMSGLAAAIAGAKLRRVQRPEDASGGSSPSGTSKSDANRASSGGGGGGLMEEMNKLLAKRRKAASQSDKPAEKKEDESQMEDPSTSPSPGTRAASQPPNSSEAGRKPWERSNSVEKPVSSILSRTPSVAKSPEAKSPLQSQPHSRMKPAGSVNDMALDAFDLDRMKQEILEEVVRELHKVKEEIIDAIRQELSGISTT [EVL] | -0.133 | -0.273 | 0.231 | -0.143 | 50 °C | – |
| MNVTPEVKSRGMKFAEEQLLKHGWTQGKGLGRKENGITQALRVTLKQDTHGVGHDPAKEFTNHWWNELFNKTAANLVVETGQDGVQIRSLSKETTRYNHPKPNLLYQKFVKMATLTSGGEKPNKDLESCSDDDNQGSKSPKILTDEMLLQACEGRTAHKAARLGITMKAKLARLEAQEQAFLARLKGQDPGAPQLQSESKPPKKKKKKRRQKEEEEATASERNDADEKHPEHAEQNIRKSKKKKRRHQEGKVSDEREGTTKGNEKEDAAGTSGLGELNSREQTNQSLRKGKKKKRWHHEEEKMGVLEEGGKGKEAAGSVRTEEVESRAYADPCSRRKKRQQQEEEDLNLEDRGEETVLGGGTREAESRACSDGRSRKSKKKRQQHQEEEDILDVRDEKDGGAREAESRAHTGSSSRGKRKRQQHPKKERAGVSTVQKAKKKQKKRD [GPATCH4] | 1.12 | 2.93 | -1.28 | 0.885 | 47.5 °C | 48.6 °C |
| SRSF6 | -0.248 | -2.07 | -0.646 | 0.385 | 49.8 °C | 50.6 °C |
| HSPA2 | 0.118 | 1.01 | 0.111 | -0.0491 | 53.2 °C | 52.4 °C |
| MAEQATKSVLFVCLGNICRSPIAEAVFRKLVTDQNISENWRVDSAATSGYEIGNPPDYRGQSCMKRHGIPMSHVARQITKEDFATFDYILCMDESNLRDLNRKSNQVKTCKAKIELLGSYDPQKQLIIEDPYYGNDSDFETVYQQCVRCCRAFLEKAH [ACP1] | -0.241 | -0.21 | 0.178 | -0.0468 | 50.2 °C | 51 °C |
| MSGESARSLGKGSAPPGPVPEGSIRIYSMRFCPFAERTRLVLKAKGIRHEVININLKNKPEWFFKKNPFGLVPVLENSQGQLIYESAITCEYLDEAYPGKKLLPDDPYEKACQKMILELFSKVPSLVGSFIRSQNKEDYAGLKEEFRKEFTKLEEVLTNKKTTFFGGNSISMIDYLIWPWFERLEAMKLNECVDHTPKLKLWMAAMKEDPTVSALLTSEKDWQGFLELYLQNSPEACDYGL [GSTO1] | 1.3 | -0.166 | 0.508 | -0.0339 | 53.7 °C | 54.2 °C |
| MYOF | -1.57 | -1.2 | -0.326 | -0.129 | 53.8 °C | 53.4 °C |
| MGIQGGSVLFGLLLVLAVFCHSGHSLQCYNCPNPTADCKTAVNCSSDFDACLITKAGLQVYNKCWKFEHCNFNDVTTRLRENELTYYCCKKDLCNFNEQLENGGTSLSEKTVLLLVTPFLAAAWSLHP [CD59] | -2.05 | -3.23 | -0.814 | -0.0336 | 56.8 °C | 64.9 °C |
| MKVARFQKIPNGENETMIPVLTSKKASELPVSEVASILQADLQNGLNKCEVSHRRAFHGWNEFDISEDEPLWKKYISQFKNPLIMLLLASAVISVLMHQFDDAVSITVAILIVVTVAFVQEYRSEKSLEELSKLVPPECHCVREGKLEHTLARDLVPGDTVCLSVGDRVPADLRLFEAVDLSIDESSLTGETTPCSKVTAPQPAATNGDLASRSNIAFMGTLVRCGKAKGVVIGTGENSEFGEVFKMMQAEEAPKTPLQKSMDLLGKQLSFYSFGIIGIIMLVGWLLGKDILEMFTISVSLAVAAIPEGLPIVVTVTLALGVMRMVKKRAIVKKLPIVETLGCCNVICSDKTGTLTKNEMTVTHIFTSDGLHAEVTGVGYNQFGEVIVDGDVVHGFYNPAVSRIVEAGCVCNDAVIRNNTLMGKPTEGALIALAMKMGLDGLQQDYIRKAEYPFSSEQKWMAVKCVHRTQQDRPEICFMKGAYEQVIKYCTTYQSKGQTLTLTQQQRDVYQQEKARMGSAGLRVLALASGPELGQLTFLGLVGIIDPPRTGVKEAVTTLIASGVSIKMITGDSQETAVAIASRLGLYSKTSQSVSGEEIDAMDVQQLSQIVPKVAVFYRASPRHKMKIIKSLQKNGSVVAMTGDGVNDAVALKAADIGVAMGQTGTDVCKEAADMILVDDDFQTIMSAIEEGKGIYNNIKNFVRFQLSTSIAALTLISLATLMNFPNPLNAMQILWINIIMDGPPAQSLGVEPVDKDVIRKPPRNWKDSILTKNLILKILVSSIIIVCGTLFVFWRELRDNVITPRDTTMTFTCFVFFDMFNALSSRSQTKSVFEIGLCSNRMFCYAVLGSIMGQLLVIYFPPLQKVFQTESLSILDLLFLLGLTSSVCIVAEIIKKVERSREKIQKHVSSTSSSFLEV [ATP2C1] | -1.8 | -1.34 | -0.143 | -0.0972 | 54.1 °C | 54.2 °C |
| MYIKQVIIQGFRSYRDQTIVDPFSSKHNVIVGRNGSGKSNFFYAIQFVLSDEFSHLRPEQRLALLHEGTGPRVISAFVEIIFDNSDNRLPIDKEEVSLRRVIGAKKDQYFLDKKMVTKNDVMNLLESAGFSRSNPYYIVKQGKINQMATAPDSQRLKLLREVAGTRVYDERKEESISLMKETEGKREKINELLKYIEERLHTLEEEKEELAQYQKWDKMRRALEYTIYNQELNETRAKLDELSAKRETSGEKSRQLRDAQQDARDKMEDIERQVRELKTKISAMKEEKEQLSAERQEQIKQRTKLELKAKDLQDELAGNSEQRKRLLKERQKLLEKIEEKQKELAETEPKFNSVKEKEERGIARLAQATQERTDLYAKQGRGSQFTSKEERDKWIKKELKSLDQAINDKKRQIAAIHKDLEDTEANKEKNLEQYNKLDQDLNEVKARVEELDRKYYEVKNKKDELQSERNYLWREENAEQQALAAKREDLEKKQQLLRAATGKAILNGIDSINKVLDHFRRKGINQHVQNGYHGIVMNNFECEPAFYTCVEVTAGNRLFYHIVDSDEVSTKILMEFNKMNLPGEVTFLPLNKLDVRDTAYPETNDAIPMISKLRYNPRFDKAFKHVFGKTLICRSMEVSTQLARAFTMDCITLEGDQVSHRGALTGGYYDTRKSRLELQKDVRKAEEELGELEAKLNENLRRNIERINNEIDQLMNQMQQIETQQRKFKASRDSILSEMKMLKEKRQQSEKTFMPKQRSLQSLEASLHAMESTRESLKAELGTDLLSQLSLEDQKRVDALNDEIRQLQQENRQLLNERIKLEGIITRVETYLNENLRKRLDQVEQELNELRETEGGTVLTATTSELEAINKRVKDTMARSEDLDNSIDKTEAGIKELQKSMERWKNMEKEHMDAINHDTKELEKMTNRQGMLLKKKEECMKKIRELGSLPQEAFEKYQTLSLKQLFRKLEQCNTELKKYSHVNKKALDQFVNFSEQKEKLIKRQEELDRGYKSIMELMNVLELRKYEAIQLTFKQVSKNFSEVFQKLVPGGKATLVMKKGDVEGSQSQDEGEGSGESERGSGSQSSVPSVDQFTGVGIRVSFTGKQGEMREMQQLSGGQKSLVALALIFAIQKCDPAPFYLFDEIDQALDAQHRKAVSDMIMELAVHAQFITTTFRPELLESADKFYGVKFRNKVSHIDVITAEMAKDFVEDDTTHG [SMC3] | -0.978 | -1.78 | -0.182 | -0.0245 | 52.6 °C | 51.5 °C |
